According to publication PMC3481213:

B1: BdCAD3 (Brachypodium distachyon) (protein)
chain: MEQGKAALGWAARDASGHLSPYNFSRRVQKDDDVTIKVLFCGICHTDLHIIKNEWGNALYPIVPGHEVVGVVTDVGPGVKNFKAGETVGVGYFLDSCRTCDSCSKGHENYCPTLVLTSNGVDYDGATTQGGFSDVVVVNQDYVVRVPDTLPPDGAAPLLCAGVTVYSPMMQYGLNAPGKHLGVVGLGGLGHMAVKFGKAFGMKVTVISSSLRKREEALDRLGADDFLVSSDAEQMKAAAGAMDGIIDTVSAGHPIVPLLELLRPMGQMVVCGAPSEPLQLPAYAVITGGKRIAGNGVGSVRDCQAMLDFAGEHGITADVEVVKMDYVNTAVERLERNDVRYRFVIDVAGSLQQGGAA
B2: BdCAD5 (Brachypodium distachyon) (protein)
chain: MGSIASEERTVTGWAARDADGHLSPYTYTLRKTGPEDVLVKVLYCGICHTDIHQAKNHLGASKYPMVPGHEVVGEVVEVGGEVSKYSAGDVVGVGVIVGCCRECRPCKASVEQYCNKRIWSYNDVYTDGRPTQGGFSSAMVVDQKFVVRIPAGLAPEQAAPLLCAGVTVYSPLKHFGLMSPGLRGGILGLGGVGHMGVKVAKSMGHHVTVISSSGKKRAEAMDDLGADAYLVSSDADQMAAAADSLDYVIDTVPVKHPLEPYLSLLKMDGKLVLMGVIGEPLSFVSPMVMLGRKSITGSFIGSMEETEEVLKFCVEKGLTSQIEVVKMDYLNEALERLERNDVRYRFVVDVAGSKIEDAA

How the values were obtained:
[1] = biological target: Brachypodium distachyon cinnamyl alcohol dehydrogenase 5 (BdCAD5), recombinant 6xHis-tagged (Brachypodium distachyon); experiment: SEC
[2] = substrate: COc1cc(/C=C/CO)ccc1O; experiment: purified protein; settings: co-substrate NADP+, 100 mM TRIS-HCl pH 8.8, 23 °C, n = 1
[3] = substrate: COc1cc(/C=C/C=O)ccc1O; experiment: purified protein; settings: co-substrate NADPH
[4] = 100 mM sodium acetate pH 5.35, 23 °C
[5] = 200 mM potassium phosphate pH 6.25, 23 °C

Molecule	percent of peak area at the dimer position [1] [%]	stoichiometry N [1]	Km [2] [µM]	Vmax [2] [µmol/min/mg]	kcat [2] [s⁻¹]	kcat/Km [2] [M⁻¹ s⁻¹]	Km [3, 4] [µM]	Vmax [3, 4] [µmol/min/mg]	kcat [3, 4] [s⁻¹]	kcat/Km [3, 4] [M⁻¹ s⁻¹]	Km [3, 5] [µM]	Vmax [3, 5] [µmol/min/mg]	kcat [3, 5] [s⁻¹]	kcat/Km [3, 5] [M⁻¹ s⁻¹]
Brachypodium distachyon cinnamyl alcohol dehydrogenase 5 (BdCAD5), recombinant 6xHis-tagged (enzyme)	24	2	–	–	–	–	–	–	–	–	–	–	–	–
B1	–	–	509.1 ± 134.0	36.7	34.3	67000	33.3 ± 3.80	9.26	8.66	260000	–	–	–	–
B2	–	–	1.44 ± 0.24	7.91	10.3	7.19e+06	–	–	–	–	3.1 ± 0.44	29.5	38.6	1.29e+07
